Test results taken from IntAct's records for PubMed 11134025.

B1: Protein kinase C-like 3 (Caenorhabditis elegans), Q19266 (parent)
chain: MSSPTSLEEDGDIKLKTRFQGQVVVLYARPPLILDDFFALLKDACKQHKKQDITVKWIDEDGDPISIDSQMELDEAVRCLNSSQEAELNIHVFVGKPELPGLPCQGEDKTVYRRGARRWKKIYLYNGHRFQAKRLNRRIQCFICHDYIWGIGRQGFRCVDCRLCVHKKCHRHVRTHCGQALQGPNIIPMAPASGSLKGARSNTSSSTTRSGGGIDNGAFHEHEIESPGSTSHDASRAMNGNGSSKWAVSLNDFRLLTVIGRGSYAKVVQAEHVSTRQIYAIKIIKKEMFNEDEDIDWVQTEKSVFEAASNYPFLVGLHSCFQTESRLFFVIEFVPGGDLMFHMQQQRKLPEEHARFYSGEIILALHFLHSRGIIYRDLKLDNVLIDAEGHIKLTDYGMCKENIKDGDLTSTFCGTPNYIAPEILRGDEYGFSVDWWALGVLMFEMMAGRSPFDIVGMQNSEENTEDYLFQIILERQIRIPRSLSVRASGILKGFLNKDPTERLGCKLDINEGLRDMKEHQFFRGFIDWEALEQKAVAPPYHPAVESDRDLTHFDHQFTDELPQLSPDNPDVIARIDQSEFDGFEYVNPLQMSREDSV
partner: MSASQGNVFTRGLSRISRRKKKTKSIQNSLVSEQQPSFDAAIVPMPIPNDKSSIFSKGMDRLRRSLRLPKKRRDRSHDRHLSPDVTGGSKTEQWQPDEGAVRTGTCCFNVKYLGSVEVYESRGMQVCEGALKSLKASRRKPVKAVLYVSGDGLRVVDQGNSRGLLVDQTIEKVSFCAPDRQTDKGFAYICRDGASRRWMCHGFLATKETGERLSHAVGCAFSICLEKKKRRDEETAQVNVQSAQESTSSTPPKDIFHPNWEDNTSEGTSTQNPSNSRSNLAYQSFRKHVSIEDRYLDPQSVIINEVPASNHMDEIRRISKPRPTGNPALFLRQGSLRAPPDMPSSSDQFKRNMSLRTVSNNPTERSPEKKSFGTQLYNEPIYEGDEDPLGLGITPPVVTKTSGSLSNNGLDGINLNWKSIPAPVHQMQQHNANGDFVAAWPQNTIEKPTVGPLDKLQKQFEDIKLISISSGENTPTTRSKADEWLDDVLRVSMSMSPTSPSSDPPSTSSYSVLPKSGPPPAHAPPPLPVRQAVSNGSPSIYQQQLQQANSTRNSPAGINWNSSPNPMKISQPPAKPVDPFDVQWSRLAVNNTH

Variants of: B1
Conditions: with num-1, Q9XTY6-1
MSSPTSLEEDGDIKLKTRFQGQVVVLYARPPLILDDFFALLKDACKQHKKQDITVKWIDEDGDPISIDSQMELDEAVRCLNSSQEAELNIHVFVGKPELPGLPCQGEDKTVYRRGARRWKKIYLYNGHRFQAKRLNRRIQCFICHDYIWGIGRQGFRCVDCRLCVHKKCHRHVRTHCGQALQGPNIIPMAPASGSLKGARSNTSSSTTRSGGGIDNGAAHEHEIESPGSTSHDASRAMNGNGSSKWAVSLNDFRLLTVIGRGSYAKVVQAEHVSTRQIYAIKIIKKEMFNEDEDIDWVQTEKSVFEAASNYPFLVGLHSCFQTESRLFFVIEFVPGGDLMFHMQQQRKLPEEHARFYSGEIILALHFLHSRGIIYRDLKLDNVLIDAEGHIKLTDYGMCKENIKDGDLTSTFCGTPNYIAPEILRGDEYGFSVDWWALGVLMFEMMAGRSPFDIVGMQNSEENTEDYLFQIILERQIRIPRSLSVRASGILKGFLNKDPTERLGCKLDINEGLRDMKEHQFFRGFIDWEALEQKAVAPPYHPAVESDRDLTHFDHQFTDELPQLSPDNPDVIARIDQSEFDGFEYVNPLQMSREDSV [F219A] was tested, and the “effect of a mutation on the interaction” value was “decreasing interaction”.
For MSSPTSLEEDGDIKLKTRFQGQVVVLYARPPLILDDFFALLKDACKQHKKQDITVKWIDEDGDPISIDSQMELDEAVRCLNSSQEAELNIHVFVGKPELPGLPCQGEDKTVYRRGARRWKKIYLYNGHRFQAKRLNRRIQCFICHDYIWGIGRQGFRCVDCRLCVHKKCHRHVRTHCGQALQGPNIIPMAPASGSLKGARSNTSSSTTRSGGGADNGAFHEHEIESPGSTSHDASRAMNGNGSSKWAVSLNDFRLLTVIGRGSYAKVVQAEHVSTRQIYAIKIIKKEMFNEDEDIDWVQTEKSVFEAASNYPFLVGLHSCFQTESRLFFVIEFVPGGDLMFHMQQQRKLPEEHARFYSGEIILALHFLHSRGIIYRDLKLDNVLIDAEGHIKLTDYGMCKENIKDGDLTSTFCGTPNYIAPEILRGDEYGFSVDWWALGVLMFEMMAGRSPFDIVGMQNSEENTEDYLFQIILERQIRIPRSLSVRASGILKGFLNKDPTERLGCKLDINEGLRDMKEHQFFRGFIDWEALEQKAVAPPYHPAVESDRDLTHFDHQFTDELPQLSPDNPDVIARIDQSEFDGFEYVNPLQMSREDSV [I214A], the “effect of a mutation on the interaction” value was “decreasing interaction”.
For MSSPTSLEEDGDIKLKTRFQGQVVVLYARPPLILDDFFALLKDACKQHKKQDITVKWIDEDGDPISIDSQMELDEAVRCLNSSQEAELNIHVFVGKPELPGLPCQGEDKTVYRRGARRWKKIYLYNGHRFQAKRLNRRIQCFICHDYIWGIGRQGFRCVDCRLCVHKKCHRHVRTHCGQALQGPNIIPMAPASGSLKGARSNTSSSTTRSGGGIDAGAFHEHEIESPGSTSHDASRAMNGNGSSKWAVSLNDFRLLTVIGRGSYAKVVQAEHVSTRQIYAIKIIKKEMFNEDEDIDWVQTEKSVFEAASNYPFLVGLHSCFQTESRLFFVIEFVPGGDLMFHMQQQRKLPEEHARFYSGEIILALHFLHSRGIIYRDLKLDNVLIDAEGHIKLTDYGMCKENIKDGDLTSTFCGTPNYIAPEILRGDEYGFSVDWWALGVLMFEMMAGRSPFDIVGMQNSEENTEDYLFQIILERQIRIPRSLSVRASGILKGFLNKDPTERLGCKLDINEGLRDMKEHQFFRGFIDWEALEQKAVAPPYHPAVESDRDLTHFDHQFTDELPQLSPDNPDVIARIDQSEFDGFEYVNPLQMSREDSV [N216A], the “effect of a mutation on the interaction” value was “decreasing interaction”.
